In paper PMC13147315 one finds binding result and Kd data, which are given here for eight molecules.

In data set [1] the target is T1, N_WT (nucleocapsid, Wuhan) (SARS-CoV-2 (Wuhan), UniProt P0DTC9 1-419). Nature of the data set: EMSA; full binding at about 500 nM N. The following applies: protein: recombinant; tags: 6xHis; chain copies: 2.
Another data set deals with N_CTD (SARS-CoV-2 (Wuhan), UniProt P0DTC9 247-364). Nature of the data set: MST. The following applies: protein: recombinant, tags: 6xHis, chain copies: 2.
For data set [2], the target named is T1, N_WT (nucleocapsid, Wuhan). Nature of the data set: MST. The following applies: protein: recombinant, tags: 6xHis, chain copies: 2.
Data set [3] concerns the target T1, N_WT (nucleocapsid, Wuhan). Kind of data set: EMSA; 15-500 nM N. Particulars: protein: recombinant; tags: 6xHis; chain copies: 2; label: Cy5 on RNA2; 3' overhang 11 nt on strand 1.
Where [4] appears, read: label: Cy5 (Methods EMSA: Cy3), blunt.

B1: DNA of Fig. S2F (mixed)
DNA 1: TTTCGGCCTCATCAGGTCATCGCTTTAGTGAGGGTTAATAAA
DNA 2: TTATTAACCCTCACTAAA
As for B1, in data set [1], the binding result is “binds”. For the molecule UUCGUCCGGGUGUGACCGAAAGGUAA (ssRNA) [ssRNA20], the Kd turned out to be 8540 ± 4510 nM with N_CTD (label: Cy5) and 425 ± 186 nM in data set [2] (label: Cy5).

B2: dsRNA22 (dsRNA)
RNA 1: CAUAAUAAGAGGCUGGAUUUUUGGUA
RNA 2: UACCAAAAAUCCAGCCUCUUAUUAUG
For the molecule B2, the dissociation constant (Kd) came out at 1840 ± 252 nM with N_CTD (label: Cy5, blunt) and 344 ± 132 nM in data set [2] (label: Cy5, blunt). Consider AACCAUAACAUGACCAUGAGGUGCAG (ssRNA) [ssRNA3], for which the Kd with N_CTD (label: Cy5 (Methods EMSA: Cy3)) amounted to 4290 ± 427 nM; in data set [2] (label: Cy5 (Methods EMSA: Cy3)), 1260 ± 722 nM. Take CAUAAUAAGAGGCUGGAUUUUUGGUA (ssRNA) [ssRNA22]: the equilibrium dissociation constant (Kd) with N_CTD (label: Cy5) stood at 2730 ± 588 nM; in data set [2] (label: Cy5), 291 ± 121 nM.

B3: hybridized RNA2 (RNA2-Cy5/RNA7) (dsRNA)
RNA 1: CUGCACCUCAUGGUCAUGUUAUGGUU
RNA 2: GACCAUGAGGUGCAG
Take B3: the binding result in data set [3] was “binds”.

B4: dsRNA3 (dsRNA)
RNA 1: AACCAUAACAUGACCAUGAGGUGCAG
RNA 2: CUGCACCUCAUGGUCAUGUUAUGGUU
On to B4, for which the equilibrium dissociation constant (Kd) in the data set with N_CTD (setting [4]) came to 2550 ± 567 nM; in data set [2] (setting [4]), 647 ± 151 nM.

B5: dsRNA20 (dsRNA)
RNA 1: UUCGUCCGGGUGUGACCGAAAGGUAA
RNA 2: UUACCUUUCGGUCACACCCGGACGAA
B5: the Kd with N_CTD (label: Cy5, blunt) was 3300 ± 394 nM; in data set [2] (label: Cy5, blunt), 398 ± 157 nM.
